Measured values published in patent publication US7968297B2, “Method for identification, isolation and production of antigens to a specific pathogen” (Intercell AG, priority 2001, dated 2011).

B1: ORF2695 (protein, listed as Staphylococcus epidermidis)
chain: MRYLKKVTIYISLLILTIFIGGCGFINKEDSKETEIKQNFNKMLNVYPTKNLEDFYDKEGFRDEEFDKGDKGTWIIRSEMTKQPKGKIMTSRGMVLYINRNTRTAKGYFLIDEIKDDNSGRPIENEKKYPVKMNHNKIFPTKPISDDKLKKEIENFKFFVQYGDFKNLKDYKDGEISYNPNVPSYSAQYQLNNNDNNVKQLRKRYDIPTNQAPKLLLKGDGDLKGSSVGSKNLEFTFVENKEENIFFTDAVQFTPSEDDES

target: T1, DRA1*0101/DRB1*0401 (Homo sapiens, UniProt P01903+P01911, A100K/A169T/F76Y/I96L/K127E/L162R/M171V/N62H/P40V/Q125Y/R42H/S133A/S149N/S66Y/V115G/V209L/W38E); assay: Competition assay with soluble HLA class II molecules; parameters: key: +, + +: binding; +, + +: binding; −: no competition up to 200 μM test peptide; conditions: binding to soluble DRA1*0101/DRB1*0401 molecules
T1 construct: using recombinant soluble versions of HLA class II molecules; made in house; host or cells: SC-2 cells
Experimental: Binding of peptides to HLA molecules on the surface of antigen-presenting cells is a prerequisite for activation of T cells. Binding was assessed in vitro by two independent biochemical assays using recombinant soluble versions of HLA class II molecules. One assay measures the concentration dependent competitive replacement of a labeled reference peptide by the test peptides. The second assay is based on the formation of SDS-stable complexes upon binding of high- and intermediate affinity ligands.
Soluble HLA molecules (DRA1*0101/DRB1*0101 and DRA1*0101/DRB1*0401) were expressed in SC-2 cells and purified as described in Aichinger et al., 1997. For the competition assay (Hammer et al. 1995) HLA molecules were applied between 50 and 200 ng/well. For DRB1*0101 biotinilated indicator peptide HA (PKYVKQNTLKLAT—SEQ ID NO:602, Valli et al. 1993) was used at 0.008 μM. […] Molecules, indicator and test peptides were incubated overnight at 37° C., pH 7. HLA:peptide complexes obtained after incubation with serial dilutions of test and reference peptides (the known high-affinity binders HA and UD4 were used as positive control) were captured in ELISA plates coated with antibody L243, which is known to recognize a conformational epitope formed only by correctly associated heterodimers. Incorporated biotin was measured by standard colorimetric detection using a streptavidin-alkaline phosphatase conjugate (Dako) with NBT/BCIP tablets (Sigma) as substrate and automated OD reading on a Victor reader (Wallac).

Molecule | binding
IKINHFCVVPQINSFKVIPPYGHNS [p226-251] | − (−: no competition up to 200 μM test peptide)
PSLNIKNVNYQYAVPSYSPT (listed as Staphylococcus aureus) [p306-326] | +
FMVEGQRVRTISTYAINNTRCTIF [p395-418] | − (−: no competition up to 200 μM test peptide)
TIFRYVEGKSLYE [p416-428] | − (−: no competition up to 200 μM test peptide)
VIVSTLFLISQHQAQA (VIVSTLFLITSQHQAQA; listed as Staphylococcus aureus) [p24-40] | − (−: no competition up to 200 μM test peptide)
MNYGYGPGVVTSRTISASQA (EMNYGYGPGVVTSRTISASQA; listed as Staphylococcus aureus) [p240-260] | +
MTLPLMALLALSSIVAFVLPRKRKN [p623-647] | − (−: no competition up to 200 μM test peptide)
AGGIFYNQTNQQLLVLCDGMGGHK [p23-47] | − (−: no competition up to 200 μM test peptide)
IKLVSYDTVKDYAYIRFSVSNGTKA [p209-233] | +
YKVVKGVKKYFSFSQSNGYKIG [p284-305] | +
KEFKSFYSIRKSSLGVASVAISTL [p6-30] | + +
ALVFEKSVVIANVGDSRA [p107-124] | − (−: no competition up to 200 μM test peptide)
KLLVLTMSTLFATQIMNSNHAKASV [p4-29] | +
PKLRSFYSIRKSTLGVASVIVST (listed as Staphylococcus aureus) [p6-28] | +
MHVPSFQNNTTATHQN [p254-270] | +
KDYAYIRFSVSNGTKAVKIVSSTHFNN [p218-244] | +
YDYKYFYSYKVVKGVKKYFSFSQS [p275-299] | +
QSWWGLYALLGMLALFIPKFRKESK (listed as Staphylococcus aureus) [p871-896] | − (−: no competition up to 200 μM test peptide)
FPYIPDKAVYNAIVKVVVANIGYEGQ (FPYIPDKAVYNAIVKVVVANIGYEGQY; listed as Staphylococcus aureus) [p620-646] | +
NNLRGYLIMPNQTLQIPNG (NNLRGYLIMPNQTLQIPNGG; listed as Staphylococcus aureus) [p117-136] | − (−: no competition up to 200 μM test peptide)
GESLNIIASRYGVSVDQLMAANNLRG (listed as Staphylococcus aureus) [p96-121] | − (−: no competition up to 200 μM test peptide)

test system: antibodies in human patient sera; assay: Western blot reactivity of selected clones with human sera; type: binding; conditions: clone and its aa region are named in the cell; prefix A/B/C = screen the clone came from
Experimental: For Western blot analysis approximately 10 to 20 μg of total cellular protein was separated by 10% SDS-PAGE and blotted onto HybondC membrane (Amersham Pharmacia Biotech, England). The LamB or FhuA fusion proteins were detected using human serum as the primary antibody at a dilution of 1:5000 and anti human IgG antibodies coupled to HRP at a dilution of 1:5000 as secondary antibodies. Detection was performed using the ECL detection kit (Amersham Pharmacia Biotech, England). Alternatively, rabbit anti FhuA or mouse anti LamB antibodies were used as primary antibodies in combination with the respective secondary antibodies coupled to HRP for the detection of the fusion proteins.
Subsequent sequencing of a larger number of randomly picked clones (500 to 800 per screen) led to the identification of the gene and the corresponding peptide or protein sequence that was specifically recognized by the human patient serum used for screening. The frequency with which a specific clone is selected reflects at least in part the abundance and/or affinity of the specific antibodies in the serum used for selection and recognizing the epitope presented by this clone. […] All clones that are presented in Table 2 have been verified by Western blot analysis using whole cellular extracts from single clones to show the indicated reactivity with the pool of human serum used in the screen.
10 to 30 different human patient sera were subsequently used to evaluate the presence of antibodies against the selected immunogenic peptide sequences that have been discovered in the screen according to the present invention. To eliminate possible cross-reactivity with proteins expressed by E. coli, all sera were pre-adsorbed with a total cellular lysate of E. coli DHa cells expressing FhuA protein.
This analysis is summarized in Table 2 and as an example shown in FIG. 4 and is indicative of the validity of the present screen.

Molecule | Serum reactivity with relevant region (positive/total)
B1 | A: SEFAH77(22-66): 6/12
